According to article doi:10.1101/2025.07.02.662713:

Biological target: CFP-MtbDarG MD (mCerulean-fused macrodomain of Mycobacterium tuberculosis DNA ADP-ribosylglycohydrolase DarG) (M. tuberculosis) (UniProt O53605)
Assay: FRET or BRET

Chain of CFP-MtbDarG MD (mCerulean-fused macrodomain of Mycobacterium tuberculosis DNA ADP-ribosylglycohydrolase DarG) (M. tuberculosis) (O53605 1-155): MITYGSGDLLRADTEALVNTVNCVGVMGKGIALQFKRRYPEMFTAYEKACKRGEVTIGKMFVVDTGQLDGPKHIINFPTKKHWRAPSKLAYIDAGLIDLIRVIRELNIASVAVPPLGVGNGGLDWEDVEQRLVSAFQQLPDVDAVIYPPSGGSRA
Chain of PARylated YFP-GAP (mCitrine fused to a C-terminal Gαi 10-mer peptide, poly-ADP-ribosylated) (P63096 whole entry, looked up, the tested form may be a part): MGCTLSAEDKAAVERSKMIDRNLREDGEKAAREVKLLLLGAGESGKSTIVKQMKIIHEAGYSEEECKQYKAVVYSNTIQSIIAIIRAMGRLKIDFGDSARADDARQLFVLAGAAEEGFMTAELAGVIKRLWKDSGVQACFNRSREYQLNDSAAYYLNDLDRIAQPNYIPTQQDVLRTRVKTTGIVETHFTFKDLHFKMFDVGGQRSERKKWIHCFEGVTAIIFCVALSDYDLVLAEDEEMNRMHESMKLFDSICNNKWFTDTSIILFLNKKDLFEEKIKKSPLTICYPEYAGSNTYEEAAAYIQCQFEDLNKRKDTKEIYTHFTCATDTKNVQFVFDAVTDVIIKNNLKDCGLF

Substance: PARylated YFP-GAP (mCitrine fused to a C-terminal Gαi 10-mer peptide, poly-ADP-ribosylated) (from UniProt P63096 345-354)
- Kd: 316 nM
